Laboratory results: publication PMC10397247

Experiments:
[1] = biological target: T1, 4H953-bH; test: two-hybrid library CCNG1;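 also: natural log of median RNA to DNA barcode read ratio; higher means stronger binding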
T1 chain: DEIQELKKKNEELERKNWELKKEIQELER

[2] = biological target: T2, 4H855-bH; test: two-hybrid library CCNG1;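 also: natural log of median RNA to DNA barcode read ratio; higher means stronger binding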
T2 chain: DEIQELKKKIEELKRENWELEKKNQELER

[3] = biological target: T3, 4H967-bH; test: two-hybrid library CCNG1;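 also: natural log of median RNA to DNA barcode read ratio; higher means stronger binding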
T3 chain: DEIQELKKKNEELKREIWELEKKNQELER

[4] = biological target: T4, 4H908-bH; test: two-hybrid library CCNG1;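 also: natural log of median RNA to DNA barcode read ratio; higher means stronger binding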
T4 chain: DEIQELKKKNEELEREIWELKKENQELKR

[5] = biological target: T5, 4H968-bH; test: two-hybrid library CCNG1;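 also: natural log of median RNA to DNA barcode read ratio; higher means stronger binding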
T5 chain: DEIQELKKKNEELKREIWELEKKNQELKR

[6] = biological target: T6, 4H883-bH; test: two-hybrid library CCNG1;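 also: natural log of median RNA to DNA barcode read ratio; higher means stronger binding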
T6 chain: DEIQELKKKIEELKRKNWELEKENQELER

[7] = biological target: T7, 4H797-bH; test: two-hybrid library CCNG1
T7 chain: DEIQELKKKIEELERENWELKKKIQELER

[8] = biological target: T8, O16-bA; test: two-hybrid library CCNG1
T8 chain: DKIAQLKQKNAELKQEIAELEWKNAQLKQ

[9] = biological target: T9, 4H918-bH; test: two-hybrid library CCNG1
T9 chain: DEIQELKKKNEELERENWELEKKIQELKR

[10] = biological target: T10, 4H3922-AA; test: two-hybrid library CCmax; conditions: mean of both orientations
T10 chain: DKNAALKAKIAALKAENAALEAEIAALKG

[11] = biological target: T11, 4H369-AA; test: two-hybrid library CCmax; conditions: mean of both orientations
T11 chain: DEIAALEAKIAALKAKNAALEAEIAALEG

[12] = biological target: T12, 4H662-AA; test: two-hybrid library CCmax; conditions: mean of both orientations
T12 chain: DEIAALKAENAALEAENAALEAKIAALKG

[13] = biological target: T13, 4H2935-AA; test: two-hybrid library CCmax; conditions: mean of both orientations
T13 chain: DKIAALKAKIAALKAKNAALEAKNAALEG

[14] = biological target: T14, 4H3625-AA; test: two-hybrid library CCmax; conditions: mean of both orientations
T14 chain: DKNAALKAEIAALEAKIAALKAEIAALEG

[15] = biological target: T15, 4H3605-AA; test: two-hybrid library CCmax; conditions: mean of both orientations
T15 chain: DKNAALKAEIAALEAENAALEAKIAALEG

[16] = biological target: T16, 4H2513-AA; test: two-hybrid library CCmax
T16 chain: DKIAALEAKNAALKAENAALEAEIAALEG

[17] = biological target: T17, 4H3664-AA; test: two-hybrid library CCmax; conditions: mean of both orientations
T17 chain: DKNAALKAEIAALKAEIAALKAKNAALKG

[18] = biological target: T18, 4H55-AA; test: two-hybrid library CCmax
T18 chain: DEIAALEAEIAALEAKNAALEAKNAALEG

[19] = biological target: T19, 4H2608-AA; test: two-hybrid library CCmax; conditions: mean of both orientations
T19 chain: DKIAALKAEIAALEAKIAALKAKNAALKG

[20] = biological target: T20, 4H327-AA; test: two-hybrid library CCmax; conditions: mean of both orientations
T20 chain: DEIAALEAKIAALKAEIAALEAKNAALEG

[21] = biological target: T21, 4H481-AA; test: two-hybrid library CCmax; conditions: mean of both orientations
T21 chain: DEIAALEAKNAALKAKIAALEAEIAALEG

[22] = biological target: T22, 4H4033-AA; test: two-hybrid library CCmax; conditions: mean of both orientations
T22 chain: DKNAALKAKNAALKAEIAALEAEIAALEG

[23] = biological target: T23, 4H2536-AA; test: two-hybrid library CCmax
T23 chain: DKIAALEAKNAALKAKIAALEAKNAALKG

[24] = biological target: T24, 4H2614-AA; test: two-hybrid library CCmax; conditions: mean of both orientations
T24 chain: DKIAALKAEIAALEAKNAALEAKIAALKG

[25] = biological target: T25, 4H2726-AA; test: two-hybrid library CCmax; conditions: mean of both orientations
T25 chain: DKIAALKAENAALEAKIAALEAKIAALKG

[26] = biological target: T26, O9-bA; test: two-hybrid library CCNG1
T26 chain: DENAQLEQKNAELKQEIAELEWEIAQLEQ

[27] = biological target: T27, O5-bA; test: two-hybrid library CCNG1
T27 chain: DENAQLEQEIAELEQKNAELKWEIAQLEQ

[28] = biological target: T28, O7-bA; test: two-hybrid library CCNG1
T28 chain: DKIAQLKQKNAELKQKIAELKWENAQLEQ

[29] = biological target: T29, O3-bA; test: two-hybrid library CCNG1
T29 chain: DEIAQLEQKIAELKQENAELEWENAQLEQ

[30] = biological target: T30, O4-bA; test: two-hybrid library CCNG1
T30 chain: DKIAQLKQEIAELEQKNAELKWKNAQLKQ

[31] = biological target: T31, O2-bA; test: two-hybrid library CCNG1
T31 chain: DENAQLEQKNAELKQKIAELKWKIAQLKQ

[32] = biological target: T32, O6-bA; test: two-hybrid library CCNG1
T32 chain: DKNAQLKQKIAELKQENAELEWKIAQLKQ

[33] = biological target: T33, O8-bA; test: two-hybrid library CCNG1
T33 chain: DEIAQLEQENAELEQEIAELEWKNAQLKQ

Binder: DEIQELKKKIEELERENWELKKKIQELER [4H797-bH]
- interaction score [1]: -0.0525
- interaction score [2]: -1.17
- interaction score [3]: 0.229
- interaction score [4]: -0.915
- interaction score [5]: -0.0614
- interaction score [6]: 0.639
- interaction score [7]: -0.311
- interaction score [8]: -0.174
- interaction score [9]: 0.24

Binder: DKIAALEAKNAALKAENAALEAEIAALEG [4H2513-AA]
- interaction score [10]: -1.74
- interaction score [11]: -1.79
- interaction score [12]: 1.22
- interaction score [13]: -2.01
- interaction score [14]: -2
- interaction score [15]: -1.25
- interaction score [16]: -1.49
- interaction score [17]: -1.85
- interaction score [18]: -1.88
- interaction score [19]: -1.07
- interaction score [20]: -1.74
- interaction score [21]: -1.36
- interaction score [22]: -1.46
- interaction score [23]: -0.747
- interaction score [24]: 0.461
- interaction score [25]: 0.913

Binder: DKIAQLKQKNAELKQEIAELEWKNAQLKQ [O16-bA]
- interaction score [26]: -1.22
- interaction score [27]: -1.16
- interaction score [28]: 1.33
- interaction score [29]: -0.599
- interaction score [30]: -0.54
- interaction score [31]: -0.141
- interaction score [32]: 1.4
- interaction score [8]: -0.811
- interaction score [33]: 1.35
